This note sets out measurements from paper PMC6604391.

For test [1], the target named is casein.
Test [2] addresses casein. This is another data set of the same source.

Read-outs that look alike come from different tables or passages of the source.

In the case of “SPPS, serine alkaline protease from Pleurotus sajor-caju strain CTM10057 (enzyme)”, the Km of casein hydrolysis (Lineweaver-Burk, pH 9.5, 70 °C) in the test with casein [1] came to 0.295 mg/mL; with casein [2], 0.275 mg/mL.
